Reference: paper PMC5892887

Experiments:
[1] = molecular target: Core domain of bacteriophage T4 gene 32 protein (*III; protein minus both N- and C-domains) (bacteriophage T4) (UniProt P03695); assay: cross-linking + other: MALDI mass spectrometry; MALDI mass-spectroscopic analysis of the EDC/NHS cross-linked reaction mixture of CTD and core domain
[2] = molecular target: Core domain of bacteriophage T4 gene 32 protein (*III; protein minus both N- and C-domains) (bacteriophage T4) (UniProt P03695); assay: cross-linking; EDC/NHS zero-length cross-linking in solution, read by SDS-PAGE; 20 uM CTD and 4 uM core domain (*III) (5:1), 40 mM MES pH 6.0, 5% glycerol, 0.5 mM EDC, 1.25 mM NHS, room temperature; also with rising p(dT)7 or NaCl
1-295 (bacteriophage T4) = assay: single-molecule DNA stretching; settings: Stopped-flow: 10 mM Tris-HCl pH 8.3, 0.1 mM Na2EDTA, 25 °C, NaCl varied (0.02 M for typical traces); DNA stretching: 0.1 M Na+
[3] = test system: *I (gp32 lacking C-domain) (bacteriophage T4); assay: single-molecule DNA stretching; settings: Stopped-flow: 10 mM Tris-HCl pH 8.3, 0.1 mM Na2EDTA, 25 °C, NaCl varied (0.02 M for typical traces); DNA stretching: 0.1 M Na+
[4] = test system: gp32 (full-length gene 32 protein) (bacteriophage T4); assay: single-molecule DNA stretching; settings: Stopped-flow: 10 mM Tris-HCl pH 8.3, 0.1 mM Na2EDTA, 25 °C, NaCl varied (0.02 M for typical traces); DNA stretching: 0.1 M Na+
[5] = test system: ΔPR201 (bacteriophage T4); assay: single-molecule DNA stretching; settings: Stopped-flow: 10 mM Tris-HCl pH 8.3, 0.1 mM Na2EDTA, 25 °C, NaCl varied (0.02 M for typical traces); DNA stretching: 0.1 M Na+

| Substance | stoichiometry N [1] | percent inhibition of cross-linking at [p(dT)7]:[core domain] of 1 [2] [%] | percent inhibition of cross-linking with 30 mM NaCl [2] [%] | Ka (1-295 (bacteriophage T4)) [M⁻¹] | Ka [3] [M⁻¹] | Ka [4] [M⁻¹] | Ka [5] [M⁻¹] |
| --- | --- | --- | --- | --- | --- | --- | --- |
| C-terminal domain (CTD) of bacteriophage T4 gene 32 protein (domain or fragment) | 1 | 50 | 50 |  |  |  |  |
| λ-DNA, single-stranded (force-melted) |  |  |  | 99300 | 1.5e+06 | 33600 | 102000 |
| λ-DNA, double-stranded |  |  |  | 5950 |  |  | 4390 |
